T1: Recombinant Human CEACAM-5/CD66e Protein (Homo sapiens, UniProt P06731)
T1 construct: purchased R & D SYSTEMS
T1 sequence (P06731 35-676): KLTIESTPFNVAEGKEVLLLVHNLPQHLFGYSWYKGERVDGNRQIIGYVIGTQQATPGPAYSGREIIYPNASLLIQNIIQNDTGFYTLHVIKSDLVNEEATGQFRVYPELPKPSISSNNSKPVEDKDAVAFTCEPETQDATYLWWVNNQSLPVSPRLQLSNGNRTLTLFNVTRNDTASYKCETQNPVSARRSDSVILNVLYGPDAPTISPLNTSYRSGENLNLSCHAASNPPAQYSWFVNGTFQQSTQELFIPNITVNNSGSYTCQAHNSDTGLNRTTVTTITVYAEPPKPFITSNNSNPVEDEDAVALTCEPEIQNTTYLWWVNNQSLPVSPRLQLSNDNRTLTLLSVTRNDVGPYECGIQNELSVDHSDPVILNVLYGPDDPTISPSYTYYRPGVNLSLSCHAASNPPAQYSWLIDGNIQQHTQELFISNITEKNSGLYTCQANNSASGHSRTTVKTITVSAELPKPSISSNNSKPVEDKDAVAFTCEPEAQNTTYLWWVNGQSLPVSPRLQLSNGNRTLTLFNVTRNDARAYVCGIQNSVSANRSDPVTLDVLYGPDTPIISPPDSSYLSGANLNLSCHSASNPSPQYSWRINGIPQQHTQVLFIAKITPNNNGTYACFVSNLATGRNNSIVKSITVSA


Legend:
[1] = molecular target: T1, Recombinant Human CEACAM-5/CD66e Protein; assay: SPR (Biacore T200) affinity of CEA-V2122 for the antigen CEACAM5; assay type: binding; conditions: bivalent analysis
Protocol: The affinity of CEA-V2122 for the antigen CEACAM5 was evaluated using a surface plasmon resonance (SPR) measuring device, Biacore T200 (GE Healthcare Life Sciences). Specifically, Recombinant Human CEACAM-5/CD66e Protein, CF (R & D SYSTEMS) was immobilized on Sensor Chip CMS (GE Healthcare Life Sciences) using an amine-coupling kit (GE Healthcare Life Sciences). The fmal amount of the ligand immobilized was 279 RU. Moreover, with regard to the purified CEA-V2122, two-fold serial dilutions from 1E-08 M to 6.25E-10 M were prepared as analytes. Regarding interaction analysis, data were obtained by single-cycle kinetics analysis. Using Biacore T200 Evaluation Software, version 2.0, the obtained data were subjected to curve fitting in a bivalent analysis mode, and the following values were obtained: ka1=3.208E+5, and kd1=3.461E-7.

[2] = system: CEACAM5-positive MKN-45 cells and CEACAM5-negative DLD1 cells; assay: Cell staining of CEACAM5-expressing cell line using FITC-labeled CEA-V2122; assay type: cell-based, human; conditions: 20 nM CEA-V2122-FITC
Protocol: In order to stain a CEACAM5 expression-positive cancer cell line, FITC labeling was carried out on the cell line, using 100 μg of a purified CEA-V2122 protein. Specifically, labeling was carried out using Fluorescein Labeling Kit-NH2 (DOJINDO LABORATORIES) in accordance with the dosage and administration described in the operating manual included with the kit, and the obtained product was defined to be CEA-V2122-FITC. Specific staining of the CEACAM5 expression-positive cancer cell line is as follows. That is, CEACAM5-positive human stomach cancer-derived MKN-45 cells and CEACAM5-negative human colon cancer-derived DLD1 cells were each seeded on a CELLSTAR, μClear, 96-well plate (Greiner) to a cell density of 2.0×10^4 cells/well, and thereafter, the cells were cultured overnight. Subsequently, a culture solution containing 20 nM CEA-V2122-FITC and 1 μM Hoechist was added to the 96-well plate to a concentration of 100 μL/well, and the obtained mixture was then reacted at 4° C. for 30 minutes. Thereafter, each image was taken using In Cell Analyzer 6000 (GE Healthcare Life Sciences).

Molecule	KD=kd1/ka1 [1]	localisation of CEACAM5 after binding (time-series images of MKN45 cells, FIG. 6) [2]	recognition of CEACAM5 on cells (stained cell images, FIG. 5) ([2]; 4° C., 30 minutes)
CEA-V2122: scFv-type anti-CEACAM5 antibody bound with mutant streptavidin V2122 via an amino acid linker (SEQ ID NO: 3) (protein) QVKLEQSGAEVVKPGASVKLSCKASGFNIKDSYMHWLRQGPGQRLEWIGWIDPENGDTEYAPKFQGKATFTTDTSANTAYLGLSSLRPEDTAVYYCNEGTPTGPYYFDYWGQGTLVTVSSGGGGSGGGGSGGGGSENVLTQSPSSMSVSVGDRVNIACSASSSVPYMHWLQQKPGKSPKLLIYLTSNLASGVPSRFSGSGSGTDYSLTISSVQPEDAATYYCQQRSSYPLTFGGGTKLEIKGGGGSGGGGAEAGITGTWSDQLGDTFIVTAGADGALTGTYENAVGGAESRYVLTGRYDSAPATDGSGTALGWTVAWKNNSKNAHSATTWSGQYVGGADAKINTQWLLTSGTTNANAWKSTLVGHDTFTKVKPSAASHHHHHH	1.078E-12		
CEA-V2122-FITC: purified CEA-V2122 protein labeled using Fluorescein Labeling Kit-NH2 (conjugate) QVKLEQSGAEVVKPGASVKLSCKASGFNIKDSYMHWLRQGPGQRLEWIGWIDPENGDTEYAPKFQGKATFTTDTSANTAYLGLSSLRPEDTAVYYCNEGTPTGPYYFDYWGQGTLVTVSSGGGGSGGGGSGGGGSENVLTQSPSSMSVSVGDRVNIACSASSSVPYMHWLQQKPGKSPKLLIYLTSNLASGVPSRFSGSGSGTDYSLTISSVQPEDAATYYCQQRSSYPLTFGGGTKLEIKGGGGSGGGGAEAGITGTWSDQLGDTFIVTAGADGALTGTYENAVGGAESRYVLTGRYDSAPATDGSGTALGWTVAWKNNSKNAHSATTWSGQYVGGADAKINTQWLLTSGTTNANAWKSTLVGHDTFTKVKPSAASHHHHHH		the CEACAM5 stays on the surface of the cell membrane	specifically recognizes CEACAM5 on the surface of the cell membrane
